US7510715 (US Dept. of Health and Human Services, dated 2009)

B3: human CCR5 on cells (CEM.NKR-CCR5 transfectants; PM1 T cells; PBMCs; macrophages) (receptor)
chain: not shown
notes: whole, on cells; also called hCCR5

Tests used:
[1] = molecular target: B3; assay: saturation binding of 125I-labeled human MIP-1β to CEM.NKR-CCR5 cells, 90 minutes at 4° C.
Experimental: The bound fraction was then measured and the dissociation constant for ligand binding calculated using a Graph Pad Prism software program (Mackiev, Cupertino, Calif.). […] Cells were then washed and the bound fraction measured radioactively.

[2] = molecular target: B3; assay: saturation binding of 125I-C-18 to CEM.NKR-CCR5 cells, 90 minutes at 4° C.
human cyclophilin A = molecular target: T1, human cyclophilin A (human, UniProt P62937 1-165); assay: competition with 125I-C-18 on CEM.NKR.CCR5 cells (method in paragraph 111)
T1 construct: also called recombinant human cyclophilin
T1 sequence (P62937 whole entry): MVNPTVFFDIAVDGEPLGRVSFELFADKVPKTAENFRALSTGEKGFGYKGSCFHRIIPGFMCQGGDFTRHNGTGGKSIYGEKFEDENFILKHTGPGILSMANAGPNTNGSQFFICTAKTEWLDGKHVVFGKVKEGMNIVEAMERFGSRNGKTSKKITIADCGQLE

B1: human macrophage inflammatory protein 1β (MIP-1β) (ligand, UniProt P13236 24-92, looked up)
chain: APMGSDPPTACCFSYTARKLPRNFVVDYYETSSLCSQPAVVFQTKRSKQVCADPSESWVQEYVYDLELN
notes: also called MIP-1B; human MIP-1 B
[1]
  Kd: 0.559 nM

B2: Toxoplasma gondii cyclophilin-18 (C-18), recombinant (ligand)
chain: not shown
[2]
  Kd: 3.65 nM

## B3
Human cyclophilin A
  binding result: no binding
